B1: αSynP130-140 (peptide)
peptide: EEGYQDYEPEA
notes: also called α-synuclein decoy peptide; C-terminal peptide of αSyn; source: synthetic peptide (SCRUM Inc or BEX Co Ltd)
B2: αSynP130-140 Y133F (peptide)
peptide: EEGFQDYEPEA
notes: source: synthetic peptide (SCRUM Inc or BEX Co Ltd)
B3: αSynP130-140 Y133W/Y136W (peptide)
peptide: EEGWQDWEPEA
notes: as for B2
B4: αSynP130-140 Y133F/Y136F (peptide)
peptide: EEGFQDFEPEA
notes: as for B2
B5: αSynP130-140 Y133F/Y136W (peptide)
peptide: EEGFQDWEPEA
notes: as for B2
B6: αSynP130-140 Y136W (peptide)
peptide: EEGYQDWEPEA
notes: as for B2
B7: αSynP130-140 Y136F (peptide)
peptide: EEGYQDFEPEA
notes: as for B2

Legend:
[1] = target: T1, FABP3 with N-terminal His6 tag (UniProt P05413 1-133); assay: quartz crystal microbalance (QCM); His6-FABP3 (or FABP3 F16S) immobilised on the gold-plated quartz sensor through Ni-NTA groups; αSyn, its variants or peptides added at varying concentrations; room temperature; 50 mM Tris-HCl pH 7.4; kobs = koff + kon[αSyn], Kd from kon and koff (AQUA 2.0); conditions: both partners purified
T1 construct: synthetic gene (Invitrogen GeneArt) in pET28a between NdeI and XhoI; Apo (delipidized) form; held on the Ni-NTA quartz sensor by the His6 tag; also called His6-FABP3; not shown: His6, N-terminal, kept
T1 sequence (P05413 whole entry): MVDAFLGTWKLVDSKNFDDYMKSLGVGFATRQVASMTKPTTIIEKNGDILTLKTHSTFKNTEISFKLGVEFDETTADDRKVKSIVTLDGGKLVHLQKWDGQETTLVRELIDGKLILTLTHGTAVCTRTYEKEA

[2] = target: T2, fatty acid binding protein 3 (UniProt P05413 1-133); assay: other fluorescence titration; ANS fluorescence (5 μM ANS, emission at 460 nm) of 2 μM FABP3 with increasing concentrations of αSyn or αSynP130-140; 50 mM Tris-HCl pH 7.4; conditions: both partners purified
T2 construct: synthetic gene (Invitrogen GeneArt) in pET28a between NcoI and XhoI; Untagged FABP3; also called FABP3; H-FABP; source: E. coli BLR(DE3), purified (Resource-Q anion exchange column), delipidized, lyophilized
T2 sequence (P05413 whole entry): as above

Row | Binder | Kd [1] | koff [1] | kon [1] | stoichiometry N [2]
1 | B1 | 6.1 nM | 0.0012 s⁻¹ | 200000 M⁻¹ s⁻¹ | ~1
2 | B2 | 2 nM | 0.0015 s⁻¹ | 750000 M⁻¹ s⁻¹ | –
3 | B3 | 6.2 nM | 0.0015 s⁻¹ | 240000 M⁻¹ s⁻¹ | –
4 | B4 | 2.1 nM | 0.0011 s⁻¹ | 540000 M⁻¹ s⁻¹ | –
5 | B5 | 6.1 nM | 0.0019 s⁻¹ | 320000 M⁻¹ s⁻¹ | –
6 | B6 | 6.3 nM | 0.0024 s⁻¹ | 380000 M⁻¹ s⁻¹ | –
7 | B7 | 7.7 nM | 0.0037 s⁻¹ | 480000 M⁻¹ s⁻¹ | –
